In test [1] the target is CRIPT^L4 (CRIPT mutants with substitutions to any of the last four cysteines), co-IP from mitotic HeLa cells. Nature of the test: co-IP.
For test [2], the target named is CRIPT^S4 (CRIPT mutants with substitutions to any of the first four cysteines), co-IP from mitotic HeLa cells. The experiment in a line: co-IP.

Where only a bound is given, the exact number is not on record here.

As to “β-tubulin, endogenous, mitotic HeLa cells (from UniProt P07437 1-444) (natural protein)”, the fold of tubulin brought down relative to wild-type CRIPT in test [1] and in test [2] was above 2 fold each time.

Turning to “α-tubulin, endogenous, mitotic HeLa cells (from UniProt P68363 1-451) (natural protein)”, the fold of tubulin brought down relative to wild-type CRIPT in test [1] and in test [2] was above 2 fold in each case.

The record behind these values is paper doi:10.1101/869123.
